Experimental data reported in paper doi:10.1101/2024.03.19.585761.

Target: ErbB2 (natural, endogenous in BT474 and MCF7 cells) (human (endogenous in MCF7 and BT474)) (UniProt P04626)
Assay: PICO

ErbB2:ErbB3 complexes per cell (ppc), BT474 mock, antibody pair TTZ-2F12: 662 ppc
ErbB2:ErbB3 complexes per cell (ppc), BT474 mock, antibody pair TTZ-Ab90: 831 ppc
ErbB2:ErbB3 complexes per cell (ppc), MCF7 dactolisib, antibody pair TTZ-2F12: 8670 ppc
ErbB2:ErbB3 complexes per cell (ppc), MCF7 mock, antibody pair TTZ-2F12: 4370 ppc
ErbB2:ErbB3 complexes per cell (ppc), MCF7 mock, antibody pair TTZ-Ab90: 5200 ppc
ErbB2:ErbB3 complexes per cell, BT474 dactolisib (molecules per cell): < 181
percent of ErbB2 bound to ErbB3, BT474 mock: 0.09%
Substance: ErbB3 (endogenous in BT474 and MCF7 cells) (from UniProt P21860 20-1342) (receptor)
